Our source for the self-aminoacylation values is the supplement of paper PMC9233669.

Variants at the floor of the assay were thinned out.

Series [1] concerns biotinyl-Leu-oxazolone. The experiment in a line: self-aminoacylation, catalytic enhancement (BLO) (fold over background); higher = more active; k-Seq, kA / k0A0; sequences stand for … in GGGAAUGGAUCCACAUCUACGAAUUC…UUCACUGCAGACUUGACGAAGCUG
Summed up: (§1)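 The uncatalyzed rate is the low-activity peak of a bimodal Gaussian fit, and catalytic enhancement is median kA divided by it. The kA values came from pseudo-first-order fits, with 1000 bootstraps, of per-sequence fraction reacted measured by streptavidin capture, triplicate qPCR and Illumina sequencing. Mutagenized RNA pools with a 21-nt variable region (0.43 μM) were reacted with each biotinyl-aminoacyl-oxazolone at 2–1250 μM in 50 μL HEPES/NaCl/KCl/MgCl2/CaCl2 buffer with 5% acetonitrile, pH 6.9–7.0, for 90 minutes at room temperature.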

Series [2] concerns biotinyl-Phe-oxazolone. The experiment in a line: self-aminoacylation, catalytic enhancement (BFO) (fold over background); higher = more active; k-Seq, kA / k0A0; sequences stand for … in GGGAAUGGAUCCACAUCUACGAAUUC…UUCACUGCAGACUUGACGAAGCUG
Summed up:
as §1

For series [3], the system named is biotinyl-Met-oxazolone. The experiment in a line: self-aminoacylation, catalytic enhancement (BMO) (fold over background); higher = more active; k-Seq, kA / k0A0; sequences stand for … in GGGAAUGGAUCCACAUCUACGAAUUC…UUCACUGCAGACUUGACGAAGCUG
The method, boiled down: as §1

The subject of series [4] is biotinyl-Ile-oxazolone. The series can be described thus: self-aminoacylation, catalytic enhancement (BIO) (fold over background); higher = more active; k-Seq, kA / k0A0; sequences stand for … in GGGAAUGGAUCCACAUCUACGAAUUC…UUCACUGCAGACUUGACGAAGCUG
The method, boiled down: as §1

In series [5] the test system is biotinyl-Trp-oxazolone. The series can be described thus: self-aminoacylation, catalytic enhancement (BWO) (fold over background); higher = more active; k-Seq, kA / k0A0; sequences stand for … in GGGAAUGGAUCCACAUCUACGAAUUC…UUCACUGCAGACUUGACGAAGCUG
The method, boiled down:
as §1

Series [6] has as its system biotinyl-Val-oxazolone. The experiment in a line: self-aminoacylation, catalytic enhancement (BVO) (fold over background); higher = more active; k-Seq, kA / k0A0; sequences stand for … in GGGAAUGGAUCCACAUCUACGAAUUC…UUCACUGCAGACUUGACGAAGCUG
Summed up:
as §1

“CCACACUUCAAGCAAUAGGCC [Fam1B.1 aminoacylation ribozyme variant]”: the self-aminoacylation in series [1] amounted to 1.05; in series [2], 0.88; in series [3] it was 0.9; in series [4], 0.939; in series [5], 0.71; in series [6] it was 1.04.

In the case of “CCACACUUCAAGCAAUCAGUG [Fam1B.1 aminoacylation ribozyme variant]”, the self-aminoacylation worked out at 4.36 in series [1]; 6.8 in series [2]; 3.58 in series [3]; 3 in series [4]; 2.99 in series [5]; 2.83 in series [6].

With “CCACACUUCAAGCAAUCCUUC [Fam1B.1 aminoacylation ribozyme variant]”, the self-aminoacylation in series [1] was 0.44; in series [2], 1.19; in series [3], 0.649; in series [4], 0.89; in series [5], 0.533; in series [6], 0.899.

Consider “CCACACUUCAAGCAAUCGACC [Fam1B.1 aminoacylation ribozyme variant]”, for which the self-aminoacylation stood at 0.399 in series [1]; 1.25 in series [2]; 0.518 in series [3]; 0.623 in series [4]; 0.447 in series [5]; 0.751 in series [6].

As to “CCACACUUCAAGCAAUCGCAC [Fam1B.1 aminoacylation ribozyme variant]”, the self-aminoacylation amounted to 0.465 in series [1]; 0.785 in series [2]; 0.814 in series [3]; 0.76 in series [4]; 0.672 in series [5]; 0.889 in series [6].

For the sequence “CCACACUUCAAGCAAUCGGAU [Fam1B.1 aminoacylation ribozyme variant]”, the self-aminoacylation in series [1] came out at 0.789; in series [2], 0.817; in series [3], 0.886; in series [4], 1.03; in series [5] it was 1.63; in series [6] it was 1.38.

“CCACACUUCAAGCAAUCUGCC [Fam1B.1 aminoacylation ribozyme variant]”: the self-aminoacylation in series [1] was 0.787; in series [2], 0.603; in series [3] it was 1.3; in series [4], 0.806; in series [5] it was 0.628; in series [6], 1.05.

For the sequence “CCACACUUCAAGCAAUGGGUU [Fam1B.1 aminoacylation ribozyme variant]”, the self-aminoacylation was 1.39 in series [1]; 0.91 in series [2]; 1.14 in series [3]; 1.22 in series [4]; 1.46 in series [5]; 1.71 in series [6].

In the case of “CCACACUUCAAGCACCCGGUC [Fam1B.1 aminoacylation ribozyme variant]”, the self-aminoacylation in series [1] was 1.64; in series [2] it was 0.709; in series [3], 1.74; in series [4], 1.55; in series [5], 2.07; in series [6] it was 1.75.

Turning to “CCACACUUCAAGCACUCGCUC [Fam1B.1 aminoacylation ribozyme variant]”, the self-aminoacylation was 2.39 in series [1]; 2.93 in series [2]; 2.25 in series [3]; 2.02 in series [4]; 1.51 in series [5]; 2.07 in series [6].

For the sequence “CCACACUUCAAGCAGACGGUC [Fam1B.1 aminoacylation ribozyme variant]”, the self-aminoacylation in series [1] was 0.605; in series [2], 0.719; in series [3], 0.607; in series [4], 0.686; in series [5], 0.539; in series [6] it was 0.57.

As for “CCACACUUCAAGCAUUAGGUC [Fam1B.1 aminoacylation ribozyme variant]”, the self-aminoacylation in series [1] is 0.504; in series [2] it was 0.818; in series [3] it was 0.399; in series [4], 0.501; in series [5] it was 0.516; in series [6], 0.645.

As for “CCACACUUCAAGCAUUCGGCC [Fam1B.1 aminoacylation ribozyme variant]”, the self-aminoacylation in series [1] was 1.63; in series [2], 0.749; in series [3], 1.25; in series [4], 1.84; in series [5], 1.69; in series [6], 1.99.

For “CCACACUUCAAGCAUUCGUUC [Fam1B.1 aminoacylation ribozyme variant]”, the self-aminoacylation in series [1] worked out at 0.653; in series [2] it was 0.811; in series [3] it was 0.685; in series [4], 0.852; in series [5], 0.688; in series [6], 1.02.

With “CCACACUUCAAGCAUUGGGUC [Fam1B.1 aminoacylation ribozyme variant]”, the self-aminoacylation came out at 0.83 in series [1]; 0.918 in series [2]; 1.03 in series [3]; 1.04 in series [4]; 0.956 in series [5]; 1.4 in series [6].

With “CCACACUUCAAGCAUUUGGUC [Fam1B.1 aminoacylation ribozyme variant]”, the self-aminoacylation in series [1] is 0.77; in series [2], 0.631; in series [3], 0.691; in series [4], 0.835; in series [5], 0.912; in series [6], 0.851.

For “CCACACUUCAAGCCAUCGGGC [Fam1B.1 aminoacylation ribozyme variant]”, the self-aminoacylation was 4.06 in series [1]; 1.42 in series [2]; 1.85 in series [3]; 2.49 in series [4]; 2.1 in series [5]; 3.22 in series [6].

As to “CCACACUUCAAGCCAUGGGUC [Fam1B.1 aminoacylation ribozyme variant]”, the self-aminoacylation was found to be 1.14 in series [1]; 0.678 in series [2]; 1.13 in series [3]; 1.15 in series [4]; 0.675 in series [5]; 0.952 in series [6].

Consider “CCACACUUCAAGCCCUCGGUC [Fam1B.1 aminoacylation ribozyme variant]”, for which the self-aminoacylation in series [1] was found to be 1.64; in series [2], 5.16; in series [3], 2.01; in series [4], 1.4; in series [5], 1.92; in series [6] it was 1.58.

As to “CCACACUUCAAGCGAUAGGUC [Fam1B.1 aminoacylation ribozyme variant]”, the self-aminoacylation in series [1] is 0.543; in series [2], 0.743; in series [3], 0.471; in series [4], 0.605; in series [5], 0.453; in series [6], 0.642.

In the case of “CCACACUUCAAGCUAACGGUC [Fam1B.1 aminoacylation ribozyme variant]”, the self-aminoacylation in series [1] worked out at 0.444; in series [2], 0.79; in series [3], 0.532; in series [4] it was 0.568; in series [5], 0.546; in series [6] it was 0.78.

Consider “CCACACUUCAAGCUACCGGUC [Fam1B.1 aminoacylation ribozyme variant]”, for which the self-aminoacylation in series [1] turned out to be 1.2; in series [2], 0.832; in series [3] it was 0.931; in series [4], 1.23; in series [5] it was 0.946; in series [6] it was 1.3.

Turning to “CCACACUUCAAGCUAUCGGAC [Fam1B.1 aminoacylation ribozyme variant]”, the self-aminoacylation in series [1] is 0.681; in series [2], 0.941; in series [3], 0.654; in series [4], 0.982; in series [5], 0.582; in series [6], 1.01.

Consider “CCACACUUCAAGCUAUCGGUU [Fam1B.1 aminoacylation ribozyme variant]”, for which the self-aminoacylation in series [1] was 1.12; in series [2], 0.942; in series [3], 1.18; in series [4], 1.29; in series [5], 0.897; in series [6], 1.43.

Turning to “CCACACUUCAAGCUUUCGGUC [Fam1B.1 aminoacylation ribozyme variant]”, the self-aminoacylation in series [1] came out at 1.3; in series [2] it was 0.741; in series [3] it was 1.17; in series [4], 1.53; in series [5], 1.1; in series [6] it was 1.64.
